In PMC3373496, “An Evolutionarily Conserved Enhancer Regulates Bmp4 Expression in Developing Incisor and Limb Bud”:

Tests used:
GST-Pitx1 = GST-Pitx1 (UniProt P70314 1-315); assay: EMSA; 1X phosphate buffer, 10% glycerol, 0.1 ug/ul DNaseI-digested poly[dG-dC], 20 ul, on ice 10 min + 20 min with probe; 6% native PAGE, 1x TBE, 4 C; settings: protein: recombinant; tags: N-terminal GST (pGEX3X); label: 32P 5' end (PNK) when probe; blunt
GST-Msx2 = GST-Msx2 (UniProt Q03358 1-267); assay: EMSA; 1X phosphate buffer, 10% glycerol, 0.3 mg/ul BSA, 0.1 ug/ul DNaseI-digested poly[dG-dC], 20 ul, on ice 10 min + 20 min with probe; 6% native PAGE, 1x TBE, 4 C; settings: protein: recombinant; tags: N-terminal GST (pGEX3X); label: 32P 5' end (PNK) when probe; blunt
GST-Msx2, sequence (Q03358 whole entry): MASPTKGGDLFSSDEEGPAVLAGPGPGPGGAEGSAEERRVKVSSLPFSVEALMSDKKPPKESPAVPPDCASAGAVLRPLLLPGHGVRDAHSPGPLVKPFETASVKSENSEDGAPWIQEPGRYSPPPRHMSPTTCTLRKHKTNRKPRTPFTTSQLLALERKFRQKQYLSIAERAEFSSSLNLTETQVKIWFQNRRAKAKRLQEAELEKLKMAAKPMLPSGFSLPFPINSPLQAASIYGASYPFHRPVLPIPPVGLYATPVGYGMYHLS

B1: Bicoid (dsDNA)
DNA 1: TCATGCCTGTAATCCCAGCACTCAG
DNA 2: CTGAGTGCTGGGATTACAGGCATGA
B1: binds (GST-Pitx1).

B2: WTPitxBSCONS3 (dsDNA)
DNA 1: AGTTCCCTACATAATCCTTACCGTG
DNA 2: CACGGTAAGGATTATGTAGGGAACT
B2: binds (GST-Pitx1).

B3: MutPitxBSCONS3 (dsDNA)
DNA 1: AGTTCCCTACAACGCATTTACCGTG
DNA 2: CACGGTAAATGCGTTGTAGGGAACT
B3: no binding (GST-Pitx1).

B4: WTMsxBSCONS3 (dsDNA)
DNA 1: GACCCTATGTAATTGCATTCCTGAA
DNA 2: TTCAGGAATGCAATTACATAGGGTC
B4: binds (GST-Msx2).

B5: MutMsxBSCONS3 (dsDNA)
DNA 1: GACCCTATCCGGCCTCATTCCTGAA
DNA 2: TTCAGGAATGAGGCCGGATAGGGTC
B5: no binding (GST-Msx2).
